Assay [1] addresses CEACAM5 N-terminal domain (Homo sapiens) (UniProt P06731). The conditions noted are these: cited from earlier work.
Target sequence in this assay (P06731 35-144): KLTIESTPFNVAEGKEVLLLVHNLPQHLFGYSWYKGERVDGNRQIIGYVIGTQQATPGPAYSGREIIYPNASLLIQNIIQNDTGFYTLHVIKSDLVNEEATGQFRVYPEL
The target is the same in assay [2]. The conditions noted are these: cited from earlier work. The source holds these as a separate data set.
Assay [3] deals with Fibronectin (Homo sapiens) (UniProt P02751). The conditions noted are these: cited from earlier work.
The target in assay [4] is Fluorescently labeled NCCM1 H139C (human) (UniProt P13688). In words: fluorescence polarisation. (In general: In fluorescence polarisation assays a small probe gives low polarisation when free and higher when bound to something large.)
For assay [5], the target named is Fluorescently labeled NCCM3 H139C (human) (UniProt P40198). In words: fluorescence polarisation.
Assay [6] addresses Recombinant OpaD reconstituted into liposomes (N. gonorrhoeae strain FA1090, UniProt Q04883 2-243). In words: fluorescence polarisation.

Like-named read-outs stand apart in the source and are kept apart here.

In general, Kd refers to the free concentration of one partner at which half of the binding sites on the other are occupied at equilibrium, for simple one-to-one binding.

Sequence of Fibronectin (Homo sapiens) (P02751 32-2477): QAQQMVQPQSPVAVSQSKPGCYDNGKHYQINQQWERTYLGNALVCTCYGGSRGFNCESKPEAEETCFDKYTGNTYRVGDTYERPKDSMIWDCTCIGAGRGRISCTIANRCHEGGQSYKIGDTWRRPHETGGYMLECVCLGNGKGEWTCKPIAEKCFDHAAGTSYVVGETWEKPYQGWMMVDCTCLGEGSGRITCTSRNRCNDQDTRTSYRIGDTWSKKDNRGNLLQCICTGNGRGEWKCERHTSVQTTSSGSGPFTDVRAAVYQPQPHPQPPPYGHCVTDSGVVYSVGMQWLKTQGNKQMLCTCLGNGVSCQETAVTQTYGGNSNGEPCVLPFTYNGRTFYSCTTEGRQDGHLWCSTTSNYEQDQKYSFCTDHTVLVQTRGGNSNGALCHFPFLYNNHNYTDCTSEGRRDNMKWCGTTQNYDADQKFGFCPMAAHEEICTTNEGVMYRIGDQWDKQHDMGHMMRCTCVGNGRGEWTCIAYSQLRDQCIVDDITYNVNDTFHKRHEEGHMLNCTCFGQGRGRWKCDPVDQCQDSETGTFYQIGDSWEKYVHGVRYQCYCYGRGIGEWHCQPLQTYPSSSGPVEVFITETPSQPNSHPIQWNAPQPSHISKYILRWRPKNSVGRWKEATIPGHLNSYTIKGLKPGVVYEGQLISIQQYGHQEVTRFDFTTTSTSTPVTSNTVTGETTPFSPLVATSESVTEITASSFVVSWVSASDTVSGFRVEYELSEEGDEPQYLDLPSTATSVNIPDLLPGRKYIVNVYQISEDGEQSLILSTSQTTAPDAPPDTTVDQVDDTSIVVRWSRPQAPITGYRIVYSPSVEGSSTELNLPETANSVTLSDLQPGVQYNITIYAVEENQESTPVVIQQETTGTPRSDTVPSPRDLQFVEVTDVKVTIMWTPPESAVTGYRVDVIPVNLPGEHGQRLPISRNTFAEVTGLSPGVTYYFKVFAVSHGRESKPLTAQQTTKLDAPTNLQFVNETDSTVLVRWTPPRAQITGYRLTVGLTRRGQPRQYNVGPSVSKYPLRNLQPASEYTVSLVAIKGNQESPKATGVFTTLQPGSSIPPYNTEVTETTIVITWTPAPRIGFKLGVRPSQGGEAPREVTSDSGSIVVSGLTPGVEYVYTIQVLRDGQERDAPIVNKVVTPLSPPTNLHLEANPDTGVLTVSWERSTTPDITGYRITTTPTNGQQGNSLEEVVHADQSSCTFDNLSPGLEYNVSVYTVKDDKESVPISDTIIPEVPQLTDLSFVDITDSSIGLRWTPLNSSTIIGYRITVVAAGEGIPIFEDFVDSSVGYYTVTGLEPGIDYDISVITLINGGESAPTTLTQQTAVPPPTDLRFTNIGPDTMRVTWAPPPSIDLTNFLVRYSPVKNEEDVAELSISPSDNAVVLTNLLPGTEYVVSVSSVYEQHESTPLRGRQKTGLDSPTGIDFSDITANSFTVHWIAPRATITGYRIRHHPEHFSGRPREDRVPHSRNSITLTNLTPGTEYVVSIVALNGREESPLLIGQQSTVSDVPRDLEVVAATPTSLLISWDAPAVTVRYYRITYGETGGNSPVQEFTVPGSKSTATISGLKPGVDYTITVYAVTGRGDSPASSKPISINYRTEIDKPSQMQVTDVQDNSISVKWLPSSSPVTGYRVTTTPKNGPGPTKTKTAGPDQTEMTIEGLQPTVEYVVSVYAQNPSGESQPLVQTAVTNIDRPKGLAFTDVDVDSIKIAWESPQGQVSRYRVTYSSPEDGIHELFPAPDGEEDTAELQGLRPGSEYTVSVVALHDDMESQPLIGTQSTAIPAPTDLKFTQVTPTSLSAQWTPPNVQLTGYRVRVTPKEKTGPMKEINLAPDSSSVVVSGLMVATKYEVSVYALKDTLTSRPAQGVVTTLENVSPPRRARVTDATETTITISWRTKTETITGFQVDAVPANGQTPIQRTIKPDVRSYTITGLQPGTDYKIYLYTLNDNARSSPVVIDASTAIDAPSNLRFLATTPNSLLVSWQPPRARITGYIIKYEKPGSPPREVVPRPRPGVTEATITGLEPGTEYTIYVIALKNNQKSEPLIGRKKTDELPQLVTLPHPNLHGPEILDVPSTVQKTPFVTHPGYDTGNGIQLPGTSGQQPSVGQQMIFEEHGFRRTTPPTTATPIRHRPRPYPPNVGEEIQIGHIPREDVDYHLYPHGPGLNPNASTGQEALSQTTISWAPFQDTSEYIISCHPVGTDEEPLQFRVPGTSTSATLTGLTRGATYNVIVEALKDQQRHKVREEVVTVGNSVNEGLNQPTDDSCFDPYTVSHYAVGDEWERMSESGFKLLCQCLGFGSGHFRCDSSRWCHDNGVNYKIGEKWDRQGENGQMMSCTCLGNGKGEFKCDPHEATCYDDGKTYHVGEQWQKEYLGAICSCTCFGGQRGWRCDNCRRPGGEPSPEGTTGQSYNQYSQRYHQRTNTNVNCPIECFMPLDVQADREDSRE

Regarding CEACAM5 A3 domain (from UniProt P06731), the Kd in assay [1] is 18 nM.
For “CEACAM5 N-terminal domain (from UniProt P06731)”, the Kd in assay [2] was 100 nM; in assay [3], 16 nM.
As to “Recombinant Opa60 reconstituted into liposomes (natural protein)”, the Kd turned out to be 1.6 nM in assay [4] and 4.3 nM in assay [5].

B1: Fluorescently labeled NCCM1 H139C (domain or fragment, human, UniProt P13688-1 35-141, looked up)
chain: QLTTESMPFNVAEGKEVLLLVHNLPQQLFGYSWYKGERVDGNRQIVGYAIGTQQATPGPANSGRETIYPNASLLIQNVTQNDTGFYTLQVIKSDLVNEEATGQFCVY
modifications: AMS (4-acetamido-4'-maleimidylstilbene-2,2'-disulfonic acid) on the introduced cysteine (H139C)
On to B1, for which, in assay [6], the Kd stood at 2.6 ± 1.3 nM.

B2: Fluorescently labeled NCCM3 H139C (domain or fragment, human)
chain: PGSGAKLTIESMPLSVAEGKEVLLLVHNLPQHLFGYSWYKGERVDGNSLIVGYVIGTQQATPGAAYSGRETIYTNASLLIQNVTQNDIGFYTLQVIKSDLVNEEATGQFCVYQ
modifications: AMS (4-acetamido-4'-maleimidylstilbene-2,2'-disulfonic acid) on the introduced cysteine (H139C)
For the molecule B2, the Kd in assay [6] came out at 6.8 ± 2.2 nM.

The values are drawn from paper PMC4980159 (Biochemistry, 2016).
